# Results: patent US20210388087A1 (Chugai, published 2021)
# Positions count from the first letter of the chain named.
# T1: Human CD3eg linker (human)
# T1 construct: Single chain: CD3 epsilon and gamma subunits joined by a 29-mer linker, Flag-tag at the C-terminus; also called recombinant human CD3
# T1 chain: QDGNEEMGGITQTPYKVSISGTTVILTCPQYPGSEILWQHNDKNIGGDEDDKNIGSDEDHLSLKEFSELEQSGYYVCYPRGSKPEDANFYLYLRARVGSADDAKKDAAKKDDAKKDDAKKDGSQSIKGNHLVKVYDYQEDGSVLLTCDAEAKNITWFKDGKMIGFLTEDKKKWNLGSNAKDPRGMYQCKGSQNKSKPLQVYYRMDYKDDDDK
# B1: GPC3 ERY22-dBBDu_183/L072 (bispecific antibody, human IgG1, kappa, L234A L235A, N297A)
# heavy 1: DIVMTQSPLSLPVTPGEPASISCRSSQSLVHSNRNTYLHWYQQKPGQAPRLLIYKVSNRFSGVPDRFSGSGSGTDFTLKISRVEAEDVGVYYCSQNTHVPPTFGQGTKLEIKSSASTKGPSVFPLAPSSKSTSGGTAALGCLVKDYFPEPVTVSWNSGALTSGVHTFPAVLQSSGLYSLSSVVTVPSSSLGTQTYICNVNHKPSNTKVDKKVEPKSCDKTHTCPPCPAPEAAGGPSVFLFPPKPKDTLMISRTPEVTCVVVDVSHEDPEVKFNWYVDGVEVHNAKTKPREEQYASTYRVVSVLTVLHQDWLNGKEYKCKVSNKALPAPIEKTISKAKGQPREPQVCTLPPSRDELTKNQVSLWCLVKGFYPSDIAVEWESNGQPENNYKTTPPVLDSDGSFFLYSKLTVDKSRWQQGNVFSCSVMHEALHNHYTQKSLSLSPHHHHHHHH
# light 1: QVQLVQSGAEVKKPGASVKVSCKASGYTFTDYEMHWIRQPPGQGLEWIGAIDPKTGDTAYSQKFKGRVTLTADKSTSTAYMELSSLTSEDTAVYYCTRFYSYTYWGQGTLVTVSSASVAAPSVFIFPPSDEQLKSGTASVVCLLNNFYPREAKVQWKVDNALQSGNSQESVTEQDSKDSTYSLSSTLTLSKADYEKHKVYACEVTHQGLSSPVTKSFNRGEC
# heavy 2: QVQLVESGGGLVQPGRSLRLSCAASGFTFSNAWMHWVRQAPGKGLEWVAQIKDKGNAYAAYYAPSVKGRFTISRDDSKNSIYLQMNSLKTEDTAVYYCHYVHYASASTVLPAFGVDAWGQGTTVTVSSASTKGPSVFPLAPSSKSTSGGTAALGCLVKDYFPEPVTVSWNSGALTSGVHTFPAVLQSSGLYSLSSVVTVPSSSLGTQTYICNVNHKPSNTKVDKKVEPKSCDKTHTCPPCPAPEAAGGPSVFLFPPKPKDTLMISRTPEVTCVVVDVSHEDPEVKFNWYVDGVEVHNAKTKPREEQYASTYRVVSVLTVLHQDWLNGKEYKCKVSNKALPAPIEKTISKAKGQPREPQVYTLPPSRCELTKNQVSLSCAVKGFYPSDIAVEWESNGQPENNYKTTPPVLDSDGSFFLVSKLTVDKSRWQQGNVFSCSVMHEALHNHYTQKSLSLSPDYKDDDDK
# light 2: DIVMTQSPLSLPVTPGEPASISCQASQELVHMNRNTYLHWYQQKPGQAPRLLIYKVSNRFPGVPDRFSGSGSGTDFTLKISRVEAEDVGVYYCAQGTSVPFTFGQGTKLEIKRTVAAPSVFIFPPSDEQLKSGTASVVCLLNNFYPREAKVQWKVDNALQSGNSQESVTEQDSKDSTYSLSSTLTLSKADYEKHKVYACEVTHQGLSSPVTKSFNRGEC
# B2: GPC3 ERY22-dBBDu_186/L096 (bispecific antibody, human IgG1, kappa, L234A L235A, N297A)
# heavy 1: B1 heavy 1
# light 1: B1 light 1
# heavy 2: B1 heavy 2 with K54R, G55S, A57Q, A60T, S105Q
# light 2: B1 light 2 with Q24R, A25T, M32I, N35Y, T36I, Y37F, S57Y, P61Q, F101Y
# B3: GPC3 ERY22-dBBDu_186/L098 (bispecific antibody, human IgG1, kappa, L234A L235A, N297A)
# heavy 1: B1 heavy 1
# light 1: B1 light 1
# heavy 2: B1 heavy 2 with K54R, G55S, A57Q, A60T, S105Q
# light 2: B1 light 2 with Q24A, Q27E, M32I, N35Y, T36I, Y37F, P61I, T97S, S98Q
# B4: GPC3 ERY22-dBBDu_186/L106 (bispecific antibody, human IgG1, kappa, L234A L235A, N297A)
# heavy 1: B1 heavy 1
# light 1: B1 light 1
# heavy 2: B1 heavy 2 with K54R, G55S, A57Q, A60T, S105Q
# light 2: DIVMTQSPLSLPVTPGEPASISCSTSEELLHINRFIFLHWYQQKPGQAPRLLIYKVANRFMGVPDRFSGSGSGTDFTLKISRVEAEDVGVYYCAQGSQVPFTFGQGTKLEIKRTVAAPSVFIFPPSDEQLKSGTASVVCLLNNFYPREAKVQWKVDNALQSGNSQESVTEQDSKDSTYSLSSTLTLSKADYEKHKVYACEVTHQGLSSPVTKSFNRGEC
# B5: GPC3 ERY22-dBBDu_167/L091 (bispecific antibody, human IgG1, kappa, L234A L235A, N297A)
# heavy 1: B1 heavy 1
# light 1: B1 light 1
# heavy 2: B1 heavy 2 with A57L, S107G, T108G, V109G, A112G
# light 2: B1 light 2 with Q24S, Q27E, E28S, V30L, M32N, N35H, K55R, P61N, A94G, S98Q
# B6: GPC3 ERY22-dBBDu_189/L116 (bispecific antibody, human IgG1, kappa, L234A L235A, N297A)
# heavy 1: B1 heavy 1
# light 1: B1 light 1
# heavy 2: B1 heavy 2 with V48I, K54R, G55S, A57Q, A60T, S105Q, T108S, V109L, A112S
# light 2: B1 light 2 with Q24S, A25S, M32A, N35Q, T36I, S57A, S98Q
# B7: GPC3 ERY22-dBBDu_189/L119 (bispecific antibody, human IgG1, kappa, L234A L235A, N297A)
# heavy 1: B1 heavy 1
# light 1: B1 light 1
# heavy 2: B1 heavy 2 with V48I, K54R, G55S, A57Q, A60T, S105Q, T108S, V109L, A112S
# light 2: B4 light 2 with S24T, T25A, E27Q, L30V, A57S, M61I
# B8: H183/L072 (antibody, V domains shown)
# VH: QVQLVESGGGLVQPGRSLRLSCAASGFTFSNAWMHWVRQAPGKGLEWVAQIKDKGNAYAAYYAPSVKGRFTISRDDSKNSIYLQMNSLKTEDTAVYYCHYVHYASASTVLPAFGVDAWGQGTTVTVSS
# VL: DIVMTQSPLSLPVTPGEPASISCQASQELVHMNRNTYLHWYQQKPGQAPRLLIYKVSNRFPGVPDRFSGSGSGTDFTLKISRVEAEDVGVYYCAQGTSVPFTFGQGTKLEIK
# notes: Dual-Fab antibody (Dual-Ig), bivalent IgG; also called parental Dual-Fab H183L072; dBBDu183H/dBBDu072L
# B9: H1571L0581 (antibody, V domains shown)
# VH: B8 VH with T28K, A32V, M34F, G55Y, A60T, V109L
# VL: B8 VL with A25P, L29V, V99H
# notes: Dual-Ig, IgG; also called dBBDu183H1571/dBBDu072L0581
# B10: H1550L0918 (antibody, V domains shown)
# VH: B8 VH with T28K, A32V, G55Y, V101I, V109L
# VL: B8 VL with A25P, L29V, R34N, N35V, T36V, V99H
# notes: Dual-Ig, IgG; also called H1550L918; dBBDu183H1550/dBBDu072L0918
# B11: H1643L0581 (antibody, V domains shown)
# VH: B8 VH with T28K, A32V, M34F, K54Y, G55Y, V109L, F113E
# VL: B8 VL with A25P, L29V, V99H
# notes: Dual-Ig, IgG; also called H1643L581; dBBDu183H1643/dBBDu072L0581
# B12: H1651L0581 (antibody, V domains shown)
# VH: B8 VH with T28V, A32V, M34F, G55Y, A60D, K67E, V109L, F113E
# VL: B8 VL with A25P, L29V, V99H
# notes: Dual-Ig, IgG; also called dBBDu183H1651/dBBDu072L0581
# B13: H1610L0939 (antibody, V domains shown)
# VH: B8 VH with T28V, A32V, G55W, V101I, V109L, F113E, V115I
# VL: B8 VL with A25P, L29V, R59V, S98H, V99H
# notes: Dual-Ig, IgG; also called H1610L939; dBBDu183H1610/dBBDu072L0939
# B14: H1610L0581 (antibody, V domains shown)
# VH: B8 VH with T28V, A32V, G55W, V101I, V109L, F113E, V115I
# VL: B8 VL with A25P, L29V, V99H
# notes: Dual-Ig, IgG; also called H1610L581; dBBDu183H1610/dBBDu072L0581
# B15: H0868L0581 (antibody, V domains shown)
# VH: B8 VH with T28K, A32V, G55Y, V109L
# VL: B8 VL with A25P, L29V, V99H
# notes: Dual-Ig, IgG; also called H868L581; dBBDu183H0868/dBBDu072L0581
# B16: H1649L0581 (antibody, V domains shown)
# VH: B8 VH with T28V, A32V, M34F, G55Y, A60D, G68E, V109L, F113E
# VL: B8 VL with A25P, L29V, V99H
# notes: Dual-Ig, IgG; also called dBBDu183H1649/dBBDu072L0581
# B17: H1652L0943 (antibody, V domains shown)
# VH: B8 VH with T28V, A32V, M34F, K54Y, G55Y, A60D, K67E, V109L, F113E
# VL: B8 VL with A25P, Q27E, L29V, R59L, S98H, V99H
# notes: Dual-Ig, IgG; also called dBBDu183H1652/dBBDu072L0943
# B18: H1647L0581 (antibody, V domains shown)
# VH: B8 VH with T28K, A32T, M34F, K54Y, G55Y, A57D, V109L, F113E
# VL: B8 VL with A25P, L29V, V99H
# notes: Dual-Ig, IgG; also called dBBDu183H1647/dBBDu072L0581
# Target: human CD137 on HDLM-2 cells (human, UniProt Q07011 24-255)
# Sequence (Q07011 24-255): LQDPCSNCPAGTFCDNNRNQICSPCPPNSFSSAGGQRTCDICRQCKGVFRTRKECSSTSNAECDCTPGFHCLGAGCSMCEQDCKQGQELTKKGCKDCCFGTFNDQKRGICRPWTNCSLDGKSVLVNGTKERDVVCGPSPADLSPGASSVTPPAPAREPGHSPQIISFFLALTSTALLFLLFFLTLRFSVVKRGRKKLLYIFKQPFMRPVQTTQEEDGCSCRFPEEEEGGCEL
# Assay: cell-based or functional assay
Binder,"Agonistic activity compared to B, antibody 6 ug/mL [%]","Agonistic activity compared to B, antibody 30 ug/mL [%]","Agonistic activity compared to Ctrl, antibody 6 ug/mL [%]","Agonistic activity compared to Ctrl, antibody 30 ug/mL [%]","hIL-6 (pg/mL), antibody 6 ug/mL [pg/mL]","hIL-6 (pg/mL), antibody 30 ug/mL [pg/mL]"
B1,3.21,15.8,11.1,59.8,1130,1450
B2,19,24.2,66.1,91.7,1680,1740
B3,13.9,24.6,48.3,93.5,1500,1750
B4,13.2,19.4,45.8,73.6,1480,1570
B5,-2.21,1.1,-7.68,4.19,935,944
B6,8.28,19.2,28.7,72.9,1300,1570
B7,6.92,20.4,24,77.3,1260,1610

# Target: T1, Human CD3eg linker
# Assay: SPR Biacore T200, 25 C, Ab captured on anti-human Fc, antigen as analyte;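 also: Anti-Fc amine-coupled to a CM4 chip, recombinant human CD3 flowed over in 20 mM ACES buffer pH 7.4 with 150 mM NaCl and 0.05% Tween 20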
# Procedure: (§1) Binding affinity of Dual-Fab antibodies (Dual-Ig) to human CD3 were assessed at 25 degrees C. using Biacore T200 instrument (GE Healthcare). Anti-human Fc (GE Healthcare) was immobilized onto all flow cells of a CM4 sensor chip using amine coupling kit (GE Healthcare). Antibodies were captured onto the anti-Fc sensor surfaces, then recombinant human CD3 or CD137 was injected over the flow cell. All antibodies and analytes were prepared in ACES pH 7.4 containing 20 mM ACES, 150 mM NaCl, 0.05% Tween 20, 0.005% NaN3. Sensor surface was regenerated each cycle with 3M MgCl2. […] CD137 binding affinity assay was conducted in same condition except assay temperature was set at 37 degrees C.
Binder,Kd [nM],koff [s⁻¹],kon [M⁻¹ s⁻¹]
B8,340,0.012,35400
B9,110,0.0156,142000
B10,43.8,0.00316,72000
B11,265,0.0251,94600
B12,517,0.0371,71800
B13,50.7,0.00253,50000
B14,20.9,0.00142,68000
B15,157,0.0194,123000
B16,449,0.0336,75000

# Target: T2, Human CD137 ECD (human)
# T2 construct: also called human CD137 extracellular domain; recombinant human CD137
# T2 sequence (chain, as listed by the source limits assumed): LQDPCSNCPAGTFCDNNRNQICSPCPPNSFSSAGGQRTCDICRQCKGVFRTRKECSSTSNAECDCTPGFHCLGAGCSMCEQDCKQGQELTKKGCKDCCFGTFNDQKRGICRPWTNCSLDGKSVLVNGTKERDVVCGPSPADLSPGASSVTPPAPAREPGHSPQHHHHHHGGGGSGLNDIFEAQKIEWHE
# Assay: SPR Biacore T200, 37 C, Ab captured on anti-human Fc, antigen as analyte;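 also: recombinant human CD137 flowed over antibodies held by amine-coupled anti-human Fc on a CM4 chip, run in ACES pH 7.4 buffer with 150 mM NaCl and 0.05% Tween 20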
# Procedure: as §1
Binder,Kd [nM],koff [s⁻¹],kon [M⁻¹ s⁻¹]
B17,36.4,0.00047,12900
B9,86.8,0.00105,12100
B18,64.8,0.000647,9980
B10,530,0.00579,10900
B11,49.4,0.000606,12300
B12,43.2,0.000603,14000
B13,61.8,0.000801,13000
B14,103,0.0011,10700
B15,111,0.00136,12200
B16,42.8,0.000553,12900
